Bounds are passed on as bounds.

Series [1] has as its target CPEB4 RRM1–RRM2 (463–665) (human) (UniProt Q17RY0). Put plainly: semi-native SDS PAGE.
Series [2] has the same target. In words: native MS.
The series “semi-native SDS PAGE” deals with the molecule itself. In words: semi-native SDS PAGE.

In turn, “CPEB4 RRM1–RRM2 (463–665) (from UniProt Q17RY0 463-665) (domain or fragment)” yielded a maximum dimeric population in series [1] of less than 10%. For the same molecule, the stoichiometry N in series [1] and in series [2] was 2 throughout.

B1: CPEB4 RRM1 (463–573) (domain or fragment, human, UniProt Q17RY0 463-573, looked up)
chain: NGERVERYSRKVFVGGLPPDIDEDEITASFRRFGPLIVDWPHKAESKSYFPPKGYAFLLFQDESSVQALIDACIEEDGKLYLCVSSPTIKDKPVQIRPWNLSDSDFVMDGS
As for B1, the stoichiometry N – broadly, a count of units in the complex or per binding partner – in the series “semi-native SDS PAGE” turned out to be 2.

Values taken from publication PMC4150798 (Nucleic Acids Research, 2014).
